Assay results published in publication PMC9444072.

Molecular target: BK channel α subunit (hSloα1, human slow poke alpha subunit K+ channel) (human) (UniProt Q12791)
Test: native gel or EMSA; native SMA-PAGE (4-16% Tris/glycine gradient gel, 150 V, 1 h, room temperature) of Ni-NTA purified SMALPs from HEK293 membranes, followed by western blot with anti-hsloα, anti-hsloβ or anti-his antibodies; subunits co-expressed in cells and extracted together

BK channel α subunit (hSloα1, human slow poke alpha subunit K+ channel), Q12791 1-1236 (natural protein; other documents disagree on this pair), sequence (Q12791 whole entry): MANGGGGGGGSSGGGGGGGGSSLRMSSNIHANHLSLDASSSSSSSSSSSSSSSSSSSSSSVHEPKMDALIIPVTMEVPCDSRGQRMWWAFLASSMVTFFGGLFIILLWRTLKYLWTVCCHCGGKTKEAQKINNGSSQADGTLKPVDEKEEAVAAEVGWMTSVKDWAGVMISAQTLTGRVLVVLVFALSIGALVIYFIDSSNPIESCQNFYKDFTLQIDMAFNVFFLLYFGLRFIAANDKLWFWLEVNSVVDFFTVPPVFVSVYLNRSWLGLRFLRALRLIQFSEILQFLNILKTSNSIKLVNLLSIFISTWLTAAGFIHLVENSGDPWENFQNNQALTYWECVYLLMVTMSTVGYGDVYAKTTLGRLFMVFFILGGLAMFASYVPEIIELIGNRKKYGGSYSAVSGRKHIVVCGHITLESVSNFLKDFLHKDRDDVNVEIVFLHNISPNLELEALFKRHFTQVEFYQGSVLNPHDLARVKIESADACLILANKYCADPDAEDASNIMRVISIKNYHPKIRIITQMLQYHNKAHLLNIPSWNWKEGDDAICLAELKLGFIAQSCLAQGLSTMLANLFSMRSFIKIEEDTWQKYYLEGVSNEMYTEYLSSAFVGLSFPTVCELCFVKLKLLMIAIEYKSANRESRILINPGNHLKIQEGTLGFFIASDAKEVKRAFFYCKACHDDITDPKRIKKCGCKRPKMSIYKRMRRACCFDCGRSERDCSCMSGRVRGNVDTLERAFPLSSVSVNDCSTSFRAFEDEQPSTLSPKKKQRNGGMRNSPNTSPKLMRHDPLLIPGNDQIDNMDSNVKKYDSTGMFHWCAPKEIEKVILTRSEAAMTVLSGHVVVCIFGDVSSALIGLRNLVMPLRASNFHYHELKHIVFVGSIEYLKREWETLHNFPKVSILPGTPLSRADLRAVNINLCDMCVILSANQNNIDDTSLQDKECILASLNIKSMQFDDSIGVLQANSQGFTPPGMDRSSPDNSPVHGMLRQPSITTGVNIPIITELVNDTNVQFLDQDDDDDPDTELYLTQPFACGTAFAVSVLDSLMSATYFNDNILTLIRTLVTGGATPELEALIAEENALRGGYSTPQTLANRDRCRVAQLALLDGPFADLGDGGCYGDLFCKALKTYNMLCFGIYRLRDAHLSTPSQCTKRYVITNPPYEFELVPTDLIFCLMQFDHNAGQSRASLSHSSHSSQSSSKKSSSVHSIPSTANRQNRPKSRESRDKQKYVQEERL

stoichiometry N: 4
Substance: BK channel α subunit (hSloα1, human slow poke alpha subunit K+ channel), Q12791 1-1236 (natural protein; other documents disagree on this pair)
